# Source: US20030082187A1
# Columns and labels:
# [1] = molecular target: murine VCAM-1 (vascular endothelial adhesion molecule-1) (murine) (UniProt P29533); assay: bEnd.3 cells, unstimulated against IL-1α-stimulated
# [2] = molecular target: murine VCAM-1 (vascular endothelial adhesion molecule-1) (murine) (UniProt P29533); assay: cell-based or functional assay
# UniProt P29533, sequence (P29533 25-739): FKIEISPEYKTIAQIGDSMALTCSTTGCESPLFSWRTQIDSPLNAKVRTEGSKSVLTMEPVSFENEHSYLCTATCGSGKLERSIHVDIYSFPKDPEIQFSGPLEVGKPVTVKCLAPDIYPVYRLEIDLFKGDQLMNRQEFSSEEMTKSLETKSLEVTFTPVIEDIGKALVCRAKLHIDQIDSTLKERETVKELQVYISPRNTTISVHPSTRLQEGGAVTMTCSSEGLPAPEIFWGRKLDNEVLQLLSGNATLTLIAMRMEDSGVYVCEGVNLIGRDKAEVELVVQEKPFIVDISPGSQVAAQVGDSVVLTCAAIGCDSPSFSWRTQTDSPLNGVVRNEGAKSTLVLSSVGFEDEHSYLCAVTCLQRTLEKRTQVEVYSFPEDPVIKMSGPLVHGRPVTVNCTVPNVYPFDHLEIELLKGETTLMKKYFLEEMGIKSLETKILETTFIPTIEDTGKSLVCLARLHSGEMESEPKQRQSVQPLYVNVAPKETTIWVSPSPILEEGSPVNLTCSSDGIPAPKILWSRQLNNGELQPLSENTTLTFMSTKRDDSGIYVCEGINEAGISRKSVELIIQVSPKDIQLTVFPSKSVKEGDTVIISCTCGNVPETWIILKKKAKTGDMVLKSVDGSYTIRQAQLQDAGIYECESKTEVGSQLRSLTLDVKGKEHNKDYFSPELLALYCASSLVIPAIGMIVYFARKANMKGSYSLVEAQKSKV
percent lower amount bound to unstimulated versus stimulated cells [1],"Generation of Factor Xa (intact cells, IL-1α) (ng per 10^4 cells per 60 min) [2]","Generation of Factor Xa (intact cells, control/unstimulated) (ng per 10^4 cells per 60 min) [2]","Generation of Factor Xa (permeabilized cells, IL-1α) (ng per 10^4 cells per 60 min) [2]","Generation of Factor Xa (permeabilized cells, control/unstimulated) (ng per 10^4 cells per 60 min) [2]",Substance
50%,3.17,1.64,98.8,49.2,anti-VCAM-1·tTF coaguligand (MK2.7 anti-VCAM-1 IgG covalently linked to truncated tissue factor) (from UniProt P13726 33-251)
,,0.26,,0.41,control IgG·tTF (R187) coaguligand (from UniProt P13726 33-251)
,,0.26,,0.39,"truncated tissue factor (tTF), unconjugated (from UniProt P13726 33-251)"
